Results: US7037674

System: cytochrome c

Chain of cytochrome P-450 reductase purified from P. somniferum cell suspension cultures (chain, as listed by the source): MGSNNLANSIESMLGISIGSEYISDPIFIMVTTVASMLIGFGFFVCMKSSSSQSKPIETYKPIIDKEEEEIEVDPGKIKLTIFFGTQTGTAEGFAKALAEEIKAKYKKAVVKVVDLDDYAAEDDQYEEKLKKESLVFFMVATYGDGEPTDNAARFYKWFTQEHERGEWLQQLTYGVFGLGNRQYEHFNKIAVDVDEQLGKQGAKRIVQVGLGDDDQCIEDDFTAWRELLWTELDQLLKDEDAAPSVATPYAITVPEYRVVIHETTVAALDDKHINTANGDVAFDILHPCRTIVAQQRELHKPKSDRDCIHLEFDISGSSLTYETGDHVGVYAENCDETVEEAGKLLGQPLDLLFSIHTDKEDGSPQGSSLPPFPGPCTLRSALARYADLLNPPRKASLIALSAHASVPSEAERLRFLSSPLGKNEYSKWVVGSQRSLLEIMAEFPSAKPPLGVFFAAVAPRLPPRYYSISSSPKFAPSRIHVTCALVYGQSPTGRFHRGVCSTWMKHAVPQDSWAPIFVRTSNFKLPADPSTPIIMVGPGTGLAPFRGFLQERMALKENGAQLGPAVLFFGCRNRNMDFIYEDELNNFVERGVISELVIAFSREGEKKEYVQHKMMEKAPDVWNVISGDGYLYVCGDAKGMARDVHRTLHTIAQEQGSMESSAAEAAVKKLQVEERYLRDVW

“cytochrome P-450 reductase purified from P. somniferum cell suspension cultures” was tested, and the “Km (cytochrome c reduction, enzyme activity)” value was “The Km value for cytochrome c was 8.3 µM”.
